Results taken from PMC5481204.

Target: full length T216A Mos1 transposase (Drosophila mauritiana)
Assay: crystal structure; Mos1 strand transfer complex (STC): T216A Mos1 transposase and strand transfer product DNA at 50 uM each in 25 mM PIPES-NaOH pH 7.5, 250 mM NaCl, 20 mM MgCl2, 1 mM DTT; sitting drop, 30% (v/v) MPD, 0.1 M sodium cacodylate pH 6.5, 0.2 M magnesium acetate; 3.3 Å; one STC in the asymmetric unit

In the case of “full length T216A Mos1 transposase (enzyme)”, the stoichiometry N is reported as 2.
